# Tests used:
# [1] = system: Ramos tumor cells; test: MTT cell proliferation assay; assay type: cell-based, human; conditions: 24 to 72 hrs, AM3-114 at 10 μM
# Description: The ability of the CXCR4 molecules or polypeptides disclosed herein (i-bodies) to inhibit proliferation of Ramos tumor cells, a human Burkitt's lymphoma cell line expressing CXCR4 mentioned above, in vitro was examined in a MTT cell proliferation assay as described in (Lapteva (2005) Cancer Gene Therapy 12, 84-89). Cells were grown in a 96-well tissue culture plate and treated with a vehicle or the anti-CXCR4 body. The cells were then incubated with the MTT solution for approximately 4 hours. After this incubation period, a water-insoluble formazan dye is formed. After solubilization, the formazan dye is quantitated using a scanning multi-well spectrophotometer (ELISA reader).
# [2] = Bleomycin mouse model of pulmonary fibrosis; assay type: in vivo; conditions: day 4, dose not given
# From the text: The optimal dose of Bleomycin is 2 U/mouse and the optimal time for assessing fibrocyte recruitment was confirmed at day 4. At days 4 bronchoalvelolar lavage (BAL) fluids were collected for analysis of SDF-1 concentration. One half of the lung tissue was used to make single cell suspensions of the lung and the cells used for flow cytometry and assayed for CD45+, CXCR4+ and Collagen1+ (fibrocytes). The other half of the lung tissue was Sircol stained for the presence of collagen 1 and RNA will be tested for Col-1, Col-3 and SDF-1.
# SDF-1, fibrocytes and collagen deposition were monitored at Day 4. Groups were dosed with the i-body just prior to administration with Bleomycin. One half of the lung tissue was minced and washed in PBS and used to make single cell suspensions of the lung with Collagenase A and dispase treatment. The cells were then used for flow cytometry and assayed for CD45+, CXCR4+ and Collagen1+ fibrocytes. […]
# [3] = system: human CD34+ stem and progenitor cells; test: Mobilisation of human CD34+ cells in humanised NSG mice; assay type: in vivo, humanized NODSIL2Rγ (NSG) mice; conditions: humanised NSG mouse model, compared to AMD3100
# Description: To acquire evidence of mobilisation of human CD34^+ stem and progenitor cells using CXCR4 i-bodies, the above mobilisation experiment was conducted in humanized NODSIL2Rγ (NSG) mice. NSG mice are severely immunodeficient and lack mature T cells, B-cells and NK cells and have severely defective innate immunity, which allows engraftment of human cells without subsequent rejection. NSG mice were transplanted with freshly sorted CD34^+ cord blood cells and upon confirmation of positive human CD45/CD34 engraftment (˜4-5 weeks) were used as a mouse model for human stem cell mobilisation.
# Mobilised peripheral blood was harvested and assessed for CD34^+ (human stem and progenitors).
# [4] = Murine air pouch model with SDF-1; assay type: in vivo, BALB/c mice; conditions: intraperitoneal, 30 minutes before SDF-1 6 μg
# Description: The ability of i-bodies to block inflammation was evaluated in an in vivo murine air pouch model. The subcutaneous (s.c.) air pouch is an in vivo model used to study acute and chronic inflammation (Durate et al, Models of Inflammation: Carrageenan Air Pouch, Current Protocols in Pharmacology 5.6.1-5.6.8, March 2012). Injection of irritants into an air pouch in rats or mice induces an inflammatory response that can be quantified by the volume of exudate produced, the infiltration of cells, and the release of inflammatory mediators. An air pouch, is generated by injection of sterile air under the skin of the back of the mouse. […] Air pouch lavage fluid is then analyzed for cell trafficking and cytokine release.
# The air pouch assay was performed on 7-week-old BALB/c mice. On days 1 and 3, 0.2 ml/g initial body weight (IBW) of sterile air was injected under the back skin to create the pouch. […] Thirty minutes later, SDF-1 (6 μg) was injected into the pouch. Four hours later, the mice were killed in a CO2 chamber and the air pouch was washed. Cells were collected, counted, and characterized by flow cytometry.
# [5] = system: normal and IPF lung fibroblasts; test: Wound healing invasion assay of lung fibroblasts; assay type: cell-based, human; conditions: AMD3100 12 μM, 21H5 130 μg/ml
# Description: To determine the role of CXCR4 and CXCL12 in fibroblast invasion, normal and IPF lung fibroblasts were utilized in a wound healing invasion assay. ImageLock 96 well plates (Essen Bioscience) were coated with 50 μg/ml of Basement membrane extract (BME; Trevigen) for one hour at room temperature. Normal, and fibroblasts generated from lung biopsies of idiopathic pulmonary fibrosis (IPF) patients showing slow progression or rapid progression of the disease were plated (36,000 cells per well) on the BME-coated plates and incubated overnight. […] The BME was allowed to polymerize by incubating the plate at 37° C. for 15 minutes. The plates were then inserted into an IncuCyte Zoom imaging system and images were acquired every 2 hours for approximately 50 hours. Invasion was quantified using IncuCyte software (Essen Bioscience).
# [6] = system: Human platelet rich plasma; test: SDF-1α induced platelet aggregation; assay type: cell-based; conditions: 10 or 20 ug/mL, 100 nM SDF-1 alpha
# Description: Experiments were carried out to examine whether the i-bodies could block platelet aggregation induced by SDF-1α. […] In the presence of negative control i-body 21H5 (or the isotype control for 12G5: mouse IgG2a). SDF-1 induced a robust and reproducible aggregation (the descending black curves, which indicate an increase in light transmission), which matches with what has been previously published.
# [7] = system: HIV entry into CXCR4 expressing T-cells; test: In vitro HIV inhibition assay; assay type: cell-based
# [8] = MOG induced experimental autoimmune encephalomyelitis (EAE); assay type: in vivo, mouse; conditions: immunohistochemistry, hematoxylin and eosin
# Description: This is the time that has been reported to be critical for infiltration of inflammatory cells across the blood brain barrier. […] It appears that blocking this migration can alleviate the symptoms of EAE.
# Immunohistochemistry of the brains of the experimental mice was performed.
molecule,measurement,setting,value
"21H5: control i-body which does not bind to CXCR4, isotype control, SEQ ID NO: 82 (protein, amino acid sequence encoding 21H5 i-body) LQVDIVPSQGEISVGESKFFLCQVAGDAKDKDISWFSPNGEKLTPNQQRISVVWNDDSSSTLTIYNANIDDAGIYKCVVTGSDAMSNYSYPISESEATVNVKIFQ",growth of RAMOS cells,[1],little effect on cell growth
same,recruitment of fibrocytes into the lungs,[2],Neither the vehicle alone nor the negative control i-body affected recruitment
same,mobilisation of human CD34+ stem cells,[3],do not mobilise stem cells
same,cell migration / leukocyte infiltration into the air pouch,[4],did not inhibit cell migration
same,"invasion / motility of normal, slow and rapid IPF lung fibroblast lines",[5],had no effect
same,blocking of SDF-1α induced platelet aggregation,[6],Neither the negative control i-body nor the control MAb had any effect
same,effect in HIV inhibition assay,[7],no effect
same,inflammatory T-cell infiltration into the white matter of the brain,[8],Dramatic T-cell infiltration

# — US11142588B2, “Polypeptides which bind C-X-C chemokine receptor type 4 (CXCR4) and methods of treating or reducing the risk of fibrosis and cancer” (AdAlta Limited, priority 2015, dated 2021)
